Measurements: PMC10534222
pKd: −log10 of the molar value.

Experiments:
[1] = target: FITC-labelled peptide (FITC)…; experiment: fluorescence polarisation
[2] = target: chicken Tapasin (chTapasin), luminal domain (chicken (Gallus gallus)); experiment: SPR
[3] = target: chicken Tapasin (chTapasin), luminal domain (chicken (Gallus gallus)); experiment: NMR titration

| pKd [1] | pKd [2] | lifetime of the complex [3] [ms] | Substance |
| --- | --- | --- | --- |
| 8.26 |  |  | empty open B*37:01/chTapasin complex (from UniProt P61769 21-119) |
| 8.21 | 5.92 | > 200 | open HLA-B*37:01 (heavy chain G120C, β2m H31C, interchain disulfide), empty (UV-irradiated) (from UniProt P61769 21-119) (complex) |
